“Also recorded” adds a separate entry of the source.

The record followed here is patent US7737158B2, “Processes for regulating blood glucose in a mammal” (Washington University, priority 2005, dated 2010).

One series deals with mouse Nampt (Mus musculus, UniProt Q99KQ4). As to the kind of experiment: Enzyme-coupled fluorometric assay of immunoprecipitated Nampt-FLAG and recombinant Nampt. It is filed as biochemical. Also noted: expressed in transfected cells; host or cells: mouse NIH3T3 fibroblasts and mouse HIB-1B preadipocytes (differentiated), stably transfected with pCXN2-Nampt-FLAG; cell extracts or culture supernatant, anti-FLAG immunoprecipitates. The note with it: for kcat: NMN synthesis, 55 min at 37° C., pH8.5, Nampt amount quantified by Western blotting. Here is the method: For immunoprecipitation of intracellular Nampt, whole cell extracts were prepared with ice-cold immunoprecipitation (IP) buffer (phosphate buffer saline [pH 7.4], 0.5% NP-40, 1 mM EDTA,1 mM NaF, 10 μM Trichostatin A, 10 mM nicotinamide, 0.5 mM DTT, protease inhibitor cocktail (Roche)) and mixed with agarose beads conjugated with the mouse monoclonal M2 anti-FLAG antibody (F2426, Sigma) for 3-4 hours at 4° C. For immunoprecipitation of extracellular Nampt, HIB-1B culture supernatants were collected after incubating differentiated HIB-1B cells overnight with DMEM without fetal bovine serum but supplemented with 1 μg/ml insulin and 1 nM triodothyronine, filtered through a 0.22-μm PES membrane, concentrated with Amicon Ultra-15 columns (Millipore, MA), and mixed with anti-FLAG beads for 3-4 hours at 4° C. Immunoprecipitates were washed twice with the IP buffer and twice with PBS.
Immunoprecipitates on anti-FLAG beads were incubated in enzymatic reaction buffer (50 mM Tris-HCl (pH8.5), 100 mM NaCl, 0.25 mM Nicotinamide, 10 mM MgSO4, 1.5% Ethanol, 0.5 mM PRPP, 2.0 mM ATP) for 55 min at 37° C. After this reaction, mouse recombinant nicotinamide mononucleotide adenylyltransferase and yeast alcohol dehydrogenase (Sigma) were added at 10 μg/ml as the final concentration for each, and the mixture was incubated for 5 min at 37° C. Supernatants were then collected by spinning down anti-FLAG beads, and autofluorescence of NADH was measured in a Perkin Elmer LS 50B fluorometer (excitation: 340 nm; emission: 460 nm). Immunoprecipitates bound on anti-FLAG beads were extracted with Laemmli's sample buffer, boiled for 5 minutes, and analyzed by Western blotting with anti-Nampt antibodies. The amounts of Nampt used for enzymatic reactions were quantitated compared to the standards of mouse recombinant Nampt.
The immunoprecipitates from the HIB-1B culture supernatants were subjected to enzyme-coupled fluorometric assays (see Revollo et al., J. Biol. Chem., (2004)279, 50754-50763) to compare enzymatic activity of the intracellular and extracellular forms of Nampt. […] The Nampt enzymatic activity of the bacterially produced recombinant Nampt and the intracellular Nampt-FLAG® immunoprecipitated from HIB-1B and NIH3T3 cellular extracts were also measured and their kcat values calculated (see FIG. 16E). […] It is believed that a post-translational modification may be responsible for the altered enzymatic activity of extracellular Nampt produced by brown adipocytes. […] Despite the extensive mass spectrometric analysis of extracellular Nampt, the precise nature of the modification is currently unknown. Taken together, these findings provide strong evidence that Nampt functions as an NAD biosynthetic enzyme both intra- and extracellularly.

The target in another series is T1, mouse Nmnat (Mus musculus, UniProt Q9EPA7).
T1 construct: Polyclonal rabbit antisera were produced against the purified full-length His-tagged Nampt and Nmnat recombinant proteins; made in house; host or cells: E. coli BL21(DE3)pLysS
Kind of series: Enzyme-coupled fluorometric assay, kinetic characterization of recombinant Nmnat. Format: biochemical. The procedure: Enzymatic activities of recombinant Nampt and Nmnat proteins were measured by an enzyme-coupled fluorometric assay (see, e.g., FIG. 4B). In this enzyme-coupled reaction, NAD is converted to NADH by alcohol dehydrogenase, and the fluorescence of NADH is detected in a fluorometer. To establish this assay system, optimal reaction conditions for Nmnat were initially examined by varying ATP and Mg^2+ concentrations and pH of the reaction buffer. The resultant reaction buffer for Nmnat contained 50 mM HEPES [pH 7.4], 0.02% BSA, 12 mM MgCl2, 2 mM ATP, 1.5% ethanol, and 30 μg/ml alcohol dehydrogenase to convert NAD to NADH. To determine the kinetic parameters for Nmnat, 30 ng of purified His-tagged Nmnat and varying concentrations of NMN were added to 1 ml of the reaction buffer. The reactions were run at 37° C. and quenched at six time points by the addition of 250 μl of 0.5 M EDTA. The production of NADH was measured by excitation at 340 nm and emission at 460 nm in a fluorometer. For kinetic characterization of Nampt, 500 ng of His-tagged Nampt and varying concentrations of nicotinamide were reacted at 37° C. in 100 μl of a buffer containing 50 mM Tris-HCl [pH 7.5], 0.02% BSA, 12 mM MgCl2, 2.5 mM ATP, 10 μg/ml His-tagged Nmnat, 0.4 mM phosphoribosyl pyrophosphate (PRPP), 1.5% ethanol, and 30 μg/ml alcohol dehydrogenase. NADH production was measured continuously in a fluorometer.
By using this enzyme-coupled fluorometric assay, kinetic parameters of purified recombinant mouse Nampt and Nmnat for nicotinamide and NMN, respectively, were determined (see, e.g., Table 1). The Lineweaver-Burk plots for these two enzymes are shown, for example, in FIGS. 11A and 11B. […] The Km and Vmax of mouse Nmnat are consistent with previously reported values for human NMNAT-1 (Emanuelli et al., J. Biol. Chem. (2001) 276, 406-412).

The mark [1] stands for this setting: purified His-tagged recombinant mouse Nmnat, substrate NMN.

B1: intracellular Nampt-FLAG® from NIH3T3 cells: FLAG-tagged mouse Nampt immunoprecipitated from NIH3T3 cellular extracts (protein, UniProt Q99KQ4 1-491, looked up)
Nicotinamide …: MNAAAEAEFNILLATDSYKVTHYKQYPPNTSKVYSYFECREKKTENSKVRKVKYEETVFYGLQYILNKYLKGKVVTKEKIQEAKEVYREHFQDDVFNERGWNYILEKYDGHLPIEVKAVPEGSVIPRGNVLFTVENTDPECYWLTNWIETILVQSWYPITVATNSREQKKILAKYLLETSGNLDGLEYKLHDFGYRGVSSQETAGIGASAHLVNFKGTDTVAGIALIKKYYGTKDPVPGYSVPAAEHSTITAWGKDHEKDAFEHIVTQFSSVPVSVVSDSYDIYNACEKIWGEDLRHLIVSRSTEAPLIIRPDSGNPLDTVLKVLDILGKKFPVTENSKGYKLLPPYLRVIQGDGVDINTLQEIVEGMKQKKWSIENVSFGSGGALLQKLTRDLLNCSFKCSYVVTNGLGVNVFKDPVADPNKRSKKGRLSLHRTPAGNFVTLEEGKGDLEEYGHDLLHTVFKNGKVTKSYSFDEVRKNAQLNIEQDVAPH
modifications: FLAG tag
notes: FLAG-tagged mouse Nampt immunoprecipitated from NIH3T3 cellular extracts
On to B1, for which, in the series with mouse Nampt, the kcat was found to be 0.082 s⁻¹.

B2: intracellular Nampt-FLAG® from differentiated HIB-1B cells: FLAG-tagged mouse Nampt immunoprecipitated from differentiated HIB-1B cellular extracts (protein, UniProt Q99KQ4 1-491, looked up)
Nicotinamide …: MNAAAEAEFNILLATDSYKVTHYKQYPPNTSKVYSYFECREKKTENSKVRKVKYEETVFYGLQYILNKYLKGKVVTKEKIQEAKEVYREHFQDDVFNERGWNYILEKYDGHLPIEVKAVPEGSVIPRGNVLFTVENTDPECYWLTNWIETILVQSWYPITVATNSREQKKILAKYLLETSGNLDGLEYKLHDFGYRGVSSQETAGIGASAHLVNFKGTDTVAGIALIKKYYGTKDPVPGYSVPAAEHSTITAWGKDHEKDAFEHIVTQFSSVPVSVVSDSYDIYNACEKIWGEDLRHLIVSRSTEAPLIIRPDSGNPLDTVLKVLDILGKKFPVTENSKGYKLLPPYLRVIQGDGVDINTLQEIVEGMKQKKWSIENVSFGSGGALLQKLTRDLLNCSFKCSYVVTNGLGVNVFKDPVADPNKRSKKGRLSLHRTPAGNFVTLEEGKGDLEEYGHDLLHTVFKNGKVTKSYSFDEVRKNAQLNIEQDVAPH
modifications: FLAG tag
notes: FLAG-tagged mouse Nampt immunoprecipitated from differentiated HIB-1B cellular extracts
In the case of B2, the kcat with mouse Nampt was 0.182 s⁻¹.

B3: extracellular Nampt: Extracellular Nampt from HIB-1B culture supernatants (protein)
chain: MNAAAEAEFNILLATDSYKVTHYKQYPPNTSKVYSYFECREKKTENSKVRKVKYEETVFYGLQYILNKYLKGKVVTKEKIQEAKEVYREHFQDDVFNERGWNYILEKYDGHLPIEVKAVPEGSVIPRGNVLFTVENTDPECYWLTNWIETILVQSWYPITVATNSREQKKILAKYLLETSGNLDGLEYKLHDFGYRGVSSQETAGIGASAHLVNFKGTDTVAGIALIKKYYGTKDPVPGYSVPAAEHSTITAWGKDHEKDAFEHIVTQFSSVPVSVVSDSYDIYNACEKIWGEDLRHLIVSRSTEAPLIIRPDSGNPLDTVLKVLDILGKKFPVTENSKGYKLLPPYLRVIQGDGVDINTLQEIVEGMKQKKWSIENVSFGSGGALLQKLTRDLLNCSFKCSYVVTNGLGVNVFKDPVADPNKRSKKGRLSLHRTPAGNFVTLEEGKGDLEEYGHDLLHTVFKNGKVTKSYSFDEVRKNAQLNIEQDVAPH
Consider B3, for which the “enzymatic activity after treatment with calf intestinal phosphatase (CIP)” value with mouse Nampt (extracellular Nampt from HIB-1B culture supernatants) is on record as “did not change”.

B4: extracellular Nampt-FLAG®: C-terminally FLAG-tagged mouse Nampt (SEQ ID NO:7) secreted from differentiated HIB-1B cells, immunoprecipitated from culture supernatants (protein)
chain: MNAAAEAEFNILLATDSYKVTHYKQYPPNTSKVYSYFECREKKTENSKVRKVKYEETVFYGLQYILNKYLKGKVVTKEKIQEAKEVYREHFQDDVFNERGWNYILEKYDGHLPIEVKAVPEGSVIPRGNVLFTVENTDPECYWLTNWIETILVQSWYPITVATNSREQKKILAKYLLETSGNLDGLEYKLHDFGYRGVSSQETAGIGASAHLVNFKGTDTVAGIALIKKYYGTKDPVPGYSVPAAEHSTITAWGKDHEKDAFEHIVTQFSSVPVSVVSDSYDIYNACEKIWGEDLRHLIVSRSTEAPLIIRPDSGNPLDTVLKVLDILGKKFPVTENSKGYKLLPPYLRVIQGDGVDINTLQEIVEGMKQKKWSIENVSFGSGGALLQKLTRDLLNCSFKCSYVVTNGLGVNVFKDPVADPNKRSKKGRLSLHRTPAGNFVTLEEGKGDLEEYGHDLLHTVFKNGKVTKSYSFDEVRKNAQLNIEQDVAPHGGDYKDDDDK
modifications: C-terminal FLAG tag; Nampt-FLAG (tm) protein
Regarding B4, the kcat with mouse Nampt is 0.380 s⁻¹. Further, the Nampt enzymatic activity entry with mouse Nampt (immunoprecipitated from culture supernatants of differentiated HIB-1B cells) is on record as “Robust activity; also recorded: has Nampt enzymatic activity”. Further, in the series with mouse Nampt (versus bacterially produced recombinant Nampt), the “kcat of extracellular Nampt-FLAG, fold higher than recombinant Nampt” value is ~11 fold. Moreover, in the series with mouse Nampt (versus intracellular Nampt-FLAG from NIH3T3 cells), the “kcat of extracellular Nampt-FLAG, fold higher than intracellular Nampt-FLAG from NIH3T3 cells” value was ~5 fold. Further, in the series with mouse Nampt (versus intracellular Nampt-FLAG from differentiated HIB-1B cells), the “kcat of extracellular Nampt-FLAG, fold higher than intracellular Nampt-FLAG from differentiated HIB-1B cells” value was ~2 fold.

B5: Nmnat: Bacterially produced, His-tagged recombinant mouse nicotinamide/nicotinic acid mononucleotide adenylyltransferase (protein, UniProt Q9EPA7 1-285, looked up)
Nicotinamide/nicotinic acid …: MDSSKKTEVVLLACGSFNPITNMHLRLFELAKDYMHATGKYSVIKGIISPVGDAYKKKGLIPAHHRIIMAELATKNSHWVEVDTWESLQKEWVETVKVLRYHQEKLATGSCSYPQSSPALEKPGRKRKWADQKQDSSPQKPQEPKPTGVPKVKLLCGADLLESFSVPNLWKMEDITQIVANFGLICITRAGSDAQKFIYESDVLWRHQSNIHLVNEWITNDISSTKIRRALRRGQSIRYLVPDLVQEYIEKHELYNTESEGRNAGVTLAPLQRNAAEAKHNHSTL
modifications: His tag
notes: Bacterially produced, His-tagged recombinant mouse nicotinamide/nicotinic acid mononucleotide adenylyltransferase
In the case of B5, the “synthesis of NAD from NMN and ATP” value with mouse Nmnat (isolated reactions) is “catalyzed the synthesis of NAD”. Besides, in the series with mouse Nmnat (setting [1]), the Vmax is 31.4 µmol/min/mg and the kcat is 20.0 s⁻¹. Also, in the series with mouse Nmnat (purified His-tagged recombinant mouse Nmnat, substrate NMN, 37° C.), the Km came out at 20.1 µM.
